Patent US20200157212A1

Biological target: Terbium (Tb) labeled-SNAP tagged ROBO2 expressed on HEK293 cells (Homo sapiens (Human)) (UniProt Q9HCK4)
Test: HTRF competition, competitor d2-SLIT2-N, ROBO2 HEK293 cells

Chain of Terbium (Tb) labeled-SNAP tagged ROBO2 expressed on HEK293 cells (Homo sapiens (Human)) (Q9HCK4 22-1378): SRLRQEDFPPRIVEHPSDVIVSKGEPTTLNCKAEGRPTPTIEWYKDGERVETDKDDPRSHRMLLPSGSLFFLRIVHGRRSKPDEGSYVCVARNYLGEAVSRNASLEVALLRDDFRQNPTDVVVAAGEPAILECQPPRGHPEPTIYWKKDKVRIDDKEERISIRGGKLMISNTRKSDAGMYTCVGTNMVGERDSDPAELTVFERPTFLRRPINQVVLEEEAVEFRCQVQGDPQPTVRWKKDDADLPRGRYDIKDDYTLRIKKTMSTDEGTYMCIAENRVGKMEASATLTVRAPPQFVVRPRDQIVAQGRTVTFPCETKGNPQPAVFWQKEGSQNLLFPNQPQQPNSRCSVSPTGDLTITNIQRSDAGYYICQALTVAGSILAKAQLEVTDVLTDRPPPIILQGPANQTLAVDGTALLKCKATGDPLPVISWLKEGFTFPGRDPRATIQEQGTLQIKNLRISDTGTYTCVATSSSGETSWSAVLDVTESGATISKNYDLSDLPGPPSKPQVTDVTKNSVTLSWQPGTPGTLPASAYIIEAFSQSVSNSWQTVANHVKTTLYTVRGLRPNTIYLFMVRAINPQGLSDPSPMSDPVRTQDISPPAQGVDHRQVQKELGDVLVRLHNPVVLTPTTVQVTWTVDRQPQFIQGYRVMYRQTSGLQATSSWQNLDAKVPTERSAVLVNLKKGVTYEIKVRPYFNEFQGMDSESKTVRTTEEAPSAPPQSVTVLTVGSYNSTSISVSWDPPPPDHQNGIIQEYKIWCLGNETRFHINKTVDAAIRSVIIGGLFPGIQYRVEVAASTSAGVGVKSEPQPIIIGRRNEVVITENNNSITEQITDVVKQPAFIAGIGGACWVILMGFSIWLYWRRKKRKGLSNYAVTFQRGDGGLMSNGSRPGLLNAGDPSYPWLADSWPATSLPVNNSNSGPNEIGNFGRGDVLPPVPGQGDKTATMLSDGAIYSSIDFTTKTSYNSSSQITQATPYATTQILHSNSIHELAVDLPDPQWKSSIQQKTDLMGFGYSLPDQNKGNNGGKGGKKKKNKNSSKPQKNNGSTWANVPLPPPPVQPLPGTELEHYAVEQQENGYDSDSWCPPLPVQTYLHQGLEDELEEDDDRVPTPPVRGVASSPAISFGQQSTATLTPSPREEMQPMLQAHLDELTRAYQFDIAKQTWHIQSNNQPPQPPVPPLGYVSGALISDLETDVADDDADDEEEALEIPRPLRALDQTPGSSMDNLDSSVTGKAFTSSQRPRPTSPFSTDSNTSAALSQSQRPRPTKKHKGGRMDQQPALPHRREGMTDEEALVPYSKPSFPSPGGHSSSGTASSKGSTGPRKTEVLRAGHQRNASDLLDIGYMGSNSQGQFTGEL

IC50: 0.125 µM
Substance: Control Ab (antibody)
